Reference: publication PMC12112590, “NDF/GLYR1 Promotes RNA Polymerase II Processivity via Pol II Binding and Nucleosome Destabilization” (International Journal of Molecular Sciences, 2025)

Target: T1, Rpb1 subunit of yeast Pol II (S. cerevisiae, UniProt P04050 1-1733)
T1 construct: Rpb1, largest subunit of S. cerevisiae RNA polymerase II; identified as the labelled band after SDS-PAGE; source: subunit within purified S. cerevisiae Pol II
Test: proximity labelling; in vitro biotinylation (BioID): 0-8 pmol hNDF-BirA* with 25 pmol yPol II in 20 μL; 20 mM HEPES pH 7.5, 10 mM MgCl2, 100 mM KCl, 1.5 mM ATP, 5% glycerol, 0.5 μM biotin; 30 °C, 1 h; SDS-PAGE and streptavidin-HRP blot
Conditions: both partners purified

T1 sequence (P04050 whole entry): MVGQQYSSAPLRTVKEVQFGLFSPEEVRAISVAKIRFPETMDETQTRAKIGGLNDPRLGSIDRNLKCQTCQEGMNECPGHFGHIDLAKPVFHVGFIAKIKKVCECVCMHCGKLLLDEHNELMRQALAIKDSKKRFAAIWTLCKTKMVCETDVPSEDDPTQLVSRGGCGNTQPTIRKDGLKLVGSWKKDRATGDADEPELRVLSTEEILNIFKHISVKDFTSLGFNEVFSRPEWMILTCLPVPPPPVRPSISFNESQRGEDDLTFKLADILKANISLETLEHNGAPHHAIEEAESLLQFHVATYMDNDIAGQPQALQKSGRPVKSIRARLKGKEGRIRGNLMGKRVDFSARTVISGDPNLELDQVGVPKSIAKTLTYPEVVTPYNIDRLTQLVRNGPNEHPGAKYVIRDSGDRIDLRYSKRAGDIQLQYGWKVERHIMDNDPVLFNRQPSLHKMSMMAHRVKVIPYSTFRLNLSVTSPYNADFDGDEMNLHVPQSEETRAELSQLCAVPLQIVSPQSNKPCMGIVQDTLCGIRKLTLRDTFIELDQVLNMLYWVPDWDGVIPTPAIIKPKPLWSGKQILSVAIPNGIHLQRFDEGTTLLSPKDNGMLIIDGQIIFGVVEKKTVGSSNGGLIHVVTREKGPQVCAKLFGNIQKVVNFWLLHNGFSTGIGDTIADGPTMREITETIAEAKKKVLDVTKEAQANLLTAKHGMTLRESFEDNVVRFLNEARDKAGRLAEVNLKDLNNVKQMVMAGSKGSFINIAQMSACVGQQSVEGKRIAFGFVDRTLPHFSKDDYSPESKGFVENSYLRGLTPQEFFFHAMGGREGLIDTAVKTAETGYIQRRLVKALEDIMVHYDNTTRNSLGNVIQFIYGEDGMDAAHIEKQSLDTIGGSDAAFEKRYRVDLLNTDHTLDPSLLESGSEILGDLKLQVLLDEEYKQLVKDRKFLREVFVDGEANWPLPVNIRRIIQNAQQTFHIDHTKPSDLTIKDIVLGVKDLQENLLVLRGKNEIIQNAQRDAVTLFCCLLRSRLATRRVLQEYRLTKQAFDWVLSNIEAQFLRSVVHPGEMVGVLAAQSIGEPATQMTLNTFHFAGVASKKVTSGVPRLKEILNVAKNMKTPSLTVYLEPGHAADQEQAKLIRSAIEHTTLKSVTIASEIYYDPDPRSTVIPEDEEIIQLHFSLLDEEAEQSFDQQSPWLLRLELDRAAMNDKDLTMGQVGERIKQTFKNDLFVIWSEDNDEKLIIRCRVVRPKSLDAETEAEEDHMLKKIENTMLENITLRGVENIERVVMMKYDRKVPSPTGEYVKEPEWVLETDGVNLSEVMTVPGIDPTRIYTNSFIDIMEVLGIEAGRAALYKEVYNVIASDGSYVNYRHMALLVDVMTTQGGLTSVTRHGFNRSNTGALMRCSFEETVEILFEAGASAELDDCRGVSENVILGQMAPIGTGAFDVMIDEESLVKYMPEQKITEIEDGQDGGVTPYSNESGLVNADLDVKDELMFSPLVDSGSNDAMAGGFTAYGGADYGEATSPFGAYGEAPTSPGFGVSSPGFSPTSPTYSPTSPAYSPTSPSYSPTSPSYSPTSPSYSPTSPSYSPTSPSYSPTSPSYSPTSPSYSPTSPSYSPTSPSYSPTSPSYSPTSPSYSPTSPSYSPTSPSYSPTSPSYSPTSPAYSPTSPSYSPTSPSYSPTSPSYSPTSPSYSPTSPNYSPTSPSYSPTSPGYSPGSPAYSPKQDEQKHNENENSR

- binding result: binds
B1: BirA*-hNDF fusion protein (natural protein, human, UniProt Q49A26 1-553, looked up)
chain: MAAVSLRLGDLVWGKLGRYPPWPGKIVNPPKDLKKPRGKKCFFVKFFGTEDHAWIKVEQLKPYHAHKEEMIKINKGKRFQQAVDAVEEFLRRAKGKDQTSSHNSSDDKNRRNSSEERSRPNSGDEKRKLSLSEGKVKKNMGEGKKRVSSGSSERGSKSPLKRAQEQSPRKRGRPPKDEKDLTIPESSTVKGMMAGPMAAFKWQPTASEPVKDADPHFHHFLLSQTEKPAVCYQAITKKLKICEEETGSTSIQAADSTAVNGSITPTDKKIGFLGLGLMGSGIVSNLLKMGHTVTVWNRTAEKCDLFIQEGARLGRTPAEVVSTCDITFACVSDPKAAKDLVLGPSGVLQGIRPGKCYVDMSTVDADTVTELAQVIVSRGGRFLEAPVSGNQQLSNDGMLVILAAGDRGLYEDCSSCFQAMGKTSFFLGEVGNAAKMMLIVNMVQGSFMATIAEGLTLAQVTGQSQQTLLDILNQGQLASIFLDQKCQNILQGNFKPDFYLKYIQKDLRLAIALGDAVNHPTPMAAAANEVYKRAKALDQSDNDMSAVYRAYIH
notes: human NDF / GLYR1 fused to the promiscuous biotin ligase BirA*; The name is printed in both orders (BirA*-hNDF, hNDF-BirA*); the construct's name puts BirA* before hNDF; also called hNDF-BirA*; hNDF-BirA; source: pET21b-N-His6-BirA*-hNDF expression construct, purified as previously described [44]; not shown: BirA* (promiscuous biotin ligase), N-terminal, kept
